Reference: the nanobody polyreactivity screen of Harvey et al. (2022)

test: yeast display, Sf9 membrane polyspecificity reagent, FACS + sequencing; frameworks hold sequencing errors
Method in brief: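 A nanobody's polyreactivity label depends on the gate it was sorted from. Yeast display cells were stained with 10% biotinylated, detergent-solubilized Sf9 membrane reagent for 1 hour at 4 °C, enriched on streptavidin microbeads and sorted by FACS. The low and high (top ~1%) gates were set on anti-HA fluorescence for expression and streptavidin fluorescence for reagent binding.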

Sequence | polyreactivity (PSR sort gate)
QVQLVESGGGLVQAGGSLRLSCAASGSTFLSNAMGWYRQAPGKERELVASINWIGGSTRYADSVKGRFTISRDNAKNTVYLQMNSLKPEDTAVYYCAVELWWKWPFYYWGQGTQVTVSS | high polyreactivity
QVQLVESGGGLVQAGGSLRLSCAASGSTFLSYAMGRYRQAPGKERELVAAITGSGGNTYYADSVKGRFTISRDNAKNSVYLQMNSLKPEDTAVYYCAADTSYWYDYYIDYVGYYYWGQGTQVTVSS | high polyreactivity
QVQLVESGGGLVQAGGSLRLSCAASGSTFLSYAMGWYRQAPGKEREMVAAISYSAGSTYYADSVKGRFTISRDNAKNTVYLQMNSLKPEDTAVYYCGAVQLVPGYVDSNDYYWGQGTQVTVSS | low polyreactivity
QVQLVESGGGLVQAGGSLRLSCAASGSTFLSYVMGWYRQAPGKERELVAAISGITGSTYYADSVKGRFTLSRDNAKNTVYLQMNSLKPQDTAVYYWAKVYGYNRLFYYRYDYWGQGTQVTVSS | high polyreactivity
QVQLVESGGGLVQAGGSLRLSCAASGSTFLSYVMGWYRQAPGKERELVAAITGTGGRTYYADSVKGRFTISRDNAKNTVYLQMNSLKPEDSAVYYCTAYRKHGYDYWGQGTQVTVSS | high polyreactivity
QVQLVESGGGLVQAGGSLRLSCAASGSTFLTNDMGWYRQAHGKERELVAVITDGDTTYADSVKGRFTISRDNAKNTVYLQMNSLKPEDTAVYYCAADENYWSAGYDYWGQGTQVTVSS | low polyreactivity
QVQLVESGGGLVQAGGSLRLSCAASGSTFLTNVMGWYRQAPGKERELVAAITIGGSTNYADSVKGRFTISRDNAKNTVYLQMNSLKPEDTAVYYCATDIRRKPRYVDYEYWGQGTQVTVSS | low polyreactivity
QVQLVESGGGLVQAGGSLRLSCAASGSTFLVYAMGWYRQAPGKERELVAAIRSGGRTYYADSVKGRFTISRDNAKNTVYLQMNSLKPEDTAVYYCAADVLLRYGYRGYDYWGQGTQVTVSS | low polyreactivity
QVQLVESGGGLVQAGGSLRLSCAASGSTFLVYAMGWYRQAPGKERELVADITSRGGSTYYADSVKGRFTISRDNAKNTVYLQMISLKPEDTAVYYCAARKRFVLFDYWGQGTQVTVSS | low polyreactivity
QVQLVESGGGLVQAGGSLRLSCAASGSTFLVYAMGWYRQAPGKERELVAVITYSTVRTYYADSVKGRFTISRDNAKNTVYLQMNSLKPEDTAVYYCNADKEFAVLGQGMDYWGQGTQVTVSS | low polyreactivity
QVQLVESGGGLVQAGGSLRLSCAASGSTFLYNAMGWYRQAPGKERELVAAITIGGGSTYYADSVKGRFTISRDNAKNTVYLQMNSLKPEDTAVYYCNKGSYYWWDPGSTYIDDYWGQGTQVTVSS | low polyreactivity
QVQLVESGGGLVQAGGSLRLSCAASGSTFLYNRMGWYRQAPGKERELVAAISSVGSTYYADSVKGRFTISRDNAKNTVYLQMNSLKPEDSAVYYCAASYDWRAYRRDFYYWLTGDYWGQGTQVTVSS | low polyreactivity
QVQLVESGGGLVQAGGSLRLSCAASGSTFLYNTMGWYRQSPGKERELVAAITWSGGNTYYADSVKGRFTISRDNAKNTVYLQMNSLKPEDTAVYYCNAVWYPPKRKGFDYWGQGTQVTVSS | low polyreactivity
QVQLVESGGGLVQAGGSLRLSCAASGSTFLYYAMGWYRQAPGKERELVAAIRVGGGRTYYADSVKGRFTISRDNAKNTVYLQMNSLKPEDTAVYYCAAKRRHRVPFDYWGQGTQVTVSS | high polyreactivity
QVQLVESGGGLVQAGGSLRLSCAASGSTFLYYAMGWYRQAPGKERELVAVISWSGVSTYYADSVKGRFTISRDNAKNTVYLQMNSLKPEDTAVYYCNTGNHYIRTYGYWGQGSQVTVSS | low polyreactivity
QVQLVESGGGLVQAGGSLRLSCAASGSTFLYYAMGWYRQAPGKERELVAVISWSGVSTYYADSVKGRFTISRDNAKNTVYLQMNSLTPEDTAVYYCNTGNHYIRTYGYWGQGTQVTVSS | low polyreactivity
QVQLVESGGGLVQAGGSLRLSCAASGSTFLYYDMGWYRQAPGKERELVADITWSGSGTYYADSVKGRFTISRDNAKNTVYLQMNSLKPEDTAVYYCAADDTWRGDQYFYSYDYWGQGTQVTVSS | low polyreactivity
